The results in this text go back to EP4786489A1, “IL-22 MUTANT, PREPARATION METHOD THEREFOR, AND USE THEREOF” (Nanjing Novoacine Biotechnology Co., Ltd., priority 2023, dated 2025).

One data set concerns Reg3β. In words: Mouse PD: plasma Reg3β after single administration (ELISA). Particulars: for Reg3βCmax: mouse plasma, wt IL-22 i.p. Further details: Reg3βCmax: unit not given here. Type of data set: in vivo. The method, then: The ELISA method was used to determine the baseline levels and post-dose changes of the biomarker Reg3β in plasma samples before and after administration of different test candidates.
For the preferable test candidates, one mouse per dose group was subcutaneously injected at 0.5, 1, or 3 mg/kg. The control molecules were IL-22-Fc, administered subcutaneously at 0.3 and 1 mg/kg, and wt IL-22, administered intraperitoneally at the corresponding doses.
Approximately 40 µL of orbital blood was collected with anticoagulation on the day before dosing and at 4, 24, 48, 96, 144, 192, 264, 336, and 408 hours after dosing, followed by plasma separation. ELISA plates were coated overnight at 4°C with 1 µg/mL anti-Reg3β (Sino Biological, 51153-R065) dissolved in PBS. Mouse Reg3β (Sino Biological, 51153-M08H) was serially diluted to generate a positive control standard curve. Plasma samples were appropriately diluted to fall within the linear range of the standard curve. After blocking, samples were added and incubated for 2 hours. Incubation was then performed with the secondary antibody sheep anti-mouse Reg3β (R&D Systems, AF5110-SP) and HRP-conjugated antibody (HRP-Rabbit anti-sheep IgG H&L, Abcam, Ab97130). After final washing, tetramethylbenzidine peroxidase substrate (TMB, Surmodics, TMBS-1000-01) was added for color development for 10 minutes. The reaction was terminated with 2 M sulfuric acid, and absorbance was read at 450 nm with 630 nm as reference using a microplate reader. The original concentrations of Reg3β in each sample were calculated. Concentration versus time curves were plotted (Figure 9).
For orientation: ELISA stands for enzyme-linked immunosorbent assay.

Another data set concerns SAA. In words: Mouse PD preference study: plasma SAA. The settings on record: at equivalent or superior Reg3β Cmax: 60K-PEG-IL22-D109C 0.1 mg/kg vs 60K-PEG-IL22-P120C 0.3 mg/kg vs IL-22-Fc 1 mg/kg, s.c. Type of data set: in vivo, mice. The method, then: Based on the in vitro preference results and preliminary PD screening results, the molecules 60k-PEG-IL22-D109C and 60k-PEG-IL22-P120C were selected. PD testing was performed in three mice per dose group at different dose levels according to the method described in Example 14, including the pharmacodynamic-related molecule Reg3β and the inflammation-related molecule SAA. The control was IL-22-Fc. Blood samples were collected before dosing and at 4, 24, 48, 72, 96, 144, 192, 264, and 336 hours after dosing. Plasma was separated using anticoagulated blood samples. For the control molecules wt IL-22 and hB3-his, samples were collected only up to 96 hours.
The detection method for SAA was as follows: a kit containing detecting antibody pairs and positive controls (Abcam, Ab216059) was used to detect SAA concentrations in appropriately diluted plasma samples. The assay was performed according to the manufacturer's instructions. Sa-HRP (Pierce 21126) was used for conjugation. After washing, tetramethylbenzidine peroxidase substrate (TMB, Surmodics, TMBS-1000-01) was added for color development for 10 minutes. The reaction was terminated with 2 M sulfuric acid, and the plate was read at 450 nm with 630 nm as the reference using a microplate reader. SAA was measured before dosing and at 24, 48, 72, 96, and 144 hours after dosing. The original SAA concentration in each sample was calculated. […]

B1: 60K-PEG-IL22-P120C: IL-22 cysteine mutant, conjugation site 87, PEG-maleimide 60kD (conjugate)
chain: APISSHCRLDKSNFQQPYITNRTFMLAKEASLADNNTDVRLIGEKLFHGVSMSERCYLMKQVLNFTLEEVLFPQSDRFQPYMQEVVCFLARLSNRLSTCHIEGDDLHIQRNVQKLKDTVKKLGESGEIKAIGELDLLFMSLRNACI
As for B1, the entries for the “Normalized Cmax ratio of Reg3β (relative to IL-22-Fc)” value with Reg3β (0.5mg/kg single dose vs IL-22-Fc 0.3 mg/kg) and in the data set on Reg3β (1mg/kg single dose) were 265% and 133%, respectively. Also, the Reg3βCmax was 41.8 with Reg3β (0.5mg/kg single dose, test candidates s.c., one mouse per dose group); 43.9 in the data set with Reg3β (1mg/kg single dose, s.c.); 43.3 with Reg3β (3mg/kg single dose, s.c.). Besides, in the data set with Reg3β (similar (0.5 mg/kg vs. 0.3 mg/kg) or identical (1 mg/kg) doses), the “peak concentrations of Reg3β stimulation compared with IL-22-Fc” value was “higher peak concentrations”. For the same molecule, the “SAA Cmax compared with IL-22-Fc” value with SAA was “significantly lower”.
